From patent US20100047164A1 come the findings set out here.

This assay concerns the target chondroitin sulfate proteoglycan (human) (UniProt Q6UVK1).

“MEL-14 PE38-KDEL (from UniProt P11439) (scFv)” gave an IC50 cytotoxicity, A375 (Expt 2) melanoma cells (Mel14-KDEL) of 0.5 mg/L; an IC50 cytotoxicity, A375 (Expt 3) melanoma cells (Mel14-KDEL) of 0.45 mg/L; an IC50 cytotoxicity, D54 glioma cells (Mel14-KDEL) of 0.05 mg/L; an IC50 cytotoxicity, D79 glioma cells (Mel14-KDEL) of 0.2 mg/L. This substance also yielded an IC50 cytotoxicity, D245 glioma cells (Mel14-KDEL) of 0.004 mg/L; an IC50 cytotoxicity, D247 glioma cells (Mel14-KDEL) of 0.1 mg/L; an IC50 cytotoxicity, H350 melanoma cells (Mel14-KDEL) of 0.008 mg/L; an IC50 cytotoxicity, Malme3M melanoma cells (Mel14-KDEL) of 0.001 mg/L. This substance showed an IC50 cytotoxicity, SKMel2 melanoma cells (Mel14-KDEL) of 0.036 mg/L; an IC50 cytotoxicity, SKMel5 melanoma cells (Mel14-KDEL) of 0.06 mg/L; an IC50 cytotoxicity, TB2620 glioma cells (Mel14-KDEL) of 0.15 mg/L.
As to “9.2.27 PE38-KDEL (from UniProt P11439) (scFv)”, the IC50 cytotoxicity, A375 (Expt 2) melanoma cells (9.2.27F10) is 4.5 mg/L; the IC50 cytotoxicity, A375 (Expt 2) melanoma cells (9.2.27F11) came out at 4.5 mg/L; the IC50 cytotoxicity, A375 (Expt 3) melanoma cells (9.2.27F11) was determined as 0.6 mg/L; the IC50 cytotoxicity, D54 glioma cells (9.2.27F10) is 0.055 mg/L. The substance also came in with an IC50 cytotoxicity, D54 glioma cells (9.2.27F11) of 0.07 mg/L; an IC50 cytotoxicity, D79 glioma cells (9.2.27F10) of 0.22 mg/L; an IC50 cytotoxicity, D79 glioma cells (9.2.27F11) of 0.1 mg/L; an IC50 cytotoxicity, D245 glioma cells (9.2.27F10) of 0.008 mg/L. Further, the IC50 cytotoxicity, D245 glioma cells (9.2.27F11) was determined as 0.006 mg/L; the IC50 cytotoxicity, D247 glioma cells (9.2.27F11) came out at 0.08 mg/L; the IC50 cytotoxicity, H350 melanoma cells (9.2.27F10) came to 0.02 mg/L; the IC50 cytotoxicity, H350 melanoma cells (9.2.27F11) was 0.02 mg/L. Moreover, the IC50 cytotoxicity, Malme3M melanoma cells (9.2.27F10) came to 0.018 mg/L; the IC50 cytotoxicity, Malme3M melanoma cells (9.2.27F11) came out at 0.02 mg/L; the IC50 cytotoxicity, SKMel2 melanoma cells (9.2.27F10) is 2.4 mg/L; the IC50 cytotoxicity, SKMel2 melanoma cells (9.2.27F11) amounted to 0.7 mg/L. Further, the IC50 cytotoxicity, SKMel5 melanoma cells (9.2.27F10) is 0.35 mg/L; the IC50 cytotoxicity, SKMel5 melanoma cells (9.2.27F11) stood at 0.2 mg/L; the IC50 cytotoxicity, TB2620 glioma cells (9.2.27F10) was 0.5 mg/L; the IC50 cytotoxicity, TB2620 glioma cells (9.2.27F11) turned out to be 0.18 mg/L.
